Molecular target: C97ZA_SOSIP_L556P_T651F_M535N (HIV-1 clade C strain C97ZA)
Test: AlphaLISA on crude cell culture supernatant

B1: mAb PGT145 (antibody, V domains shown)
VH: QVQLVQSGAEVKKPGSSVKVSCKASGNSFSNHDVHWVRQATGQGLEWMGWMSHEGDKTGLAQKFQGRVTITRDSGASTVYMELRGLTADDTAIYYCLTGSKHRLRDYFLYNEYGPNYEEWGDYLATLDVWGHGTAVTVSS
VL: EVVITQSPLFLPVTPGEAASLSCKCSHSLQHSTGANYLAWYLQRPGQTPRLLIHLATHRASGVPDRFSGSGSGTDFTLKISRVESDDVGTYYCMQGLHSPWTFGQGTKVEIKR
trimer yield (PGT145 AlphaLISA signal), fold over the C97ZA_SOSIP backbone: 5 fold

— US20230374078A1 (Janssen / Centocor, published 2023)
